In paper PMC5837818 (Molecular cell, 2018):

Biological target: E. coli core RNAP enzyme (E. coli, UniProt P0A7Z4 1-329; P0A8V2 1-1342; P0A8T7 1-1407; P0A800 1-91)
Test: fluorescence polarisation

E. coli core RNAP enzyme, sequence (P0A7Z4 whole entry, chain 1 of 4): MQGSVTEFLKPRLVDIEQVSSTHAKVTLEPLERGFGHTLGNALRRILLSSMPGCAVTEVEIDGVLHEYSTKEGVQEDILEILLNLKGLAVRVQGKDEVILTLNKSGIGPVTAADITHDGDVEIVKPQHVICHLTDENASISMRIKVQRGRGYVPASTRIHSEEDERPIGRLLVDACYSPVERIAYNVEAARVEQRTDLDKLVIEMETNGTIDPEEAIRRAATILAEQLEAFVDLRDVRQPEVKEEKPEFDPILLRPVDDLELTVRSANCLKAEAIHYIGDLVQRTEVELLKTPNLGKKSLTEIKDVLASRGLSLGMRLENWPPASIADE
E. coli core RNAP enzyme, sequence (P0A8V2 whole entry, chain 2 of 4): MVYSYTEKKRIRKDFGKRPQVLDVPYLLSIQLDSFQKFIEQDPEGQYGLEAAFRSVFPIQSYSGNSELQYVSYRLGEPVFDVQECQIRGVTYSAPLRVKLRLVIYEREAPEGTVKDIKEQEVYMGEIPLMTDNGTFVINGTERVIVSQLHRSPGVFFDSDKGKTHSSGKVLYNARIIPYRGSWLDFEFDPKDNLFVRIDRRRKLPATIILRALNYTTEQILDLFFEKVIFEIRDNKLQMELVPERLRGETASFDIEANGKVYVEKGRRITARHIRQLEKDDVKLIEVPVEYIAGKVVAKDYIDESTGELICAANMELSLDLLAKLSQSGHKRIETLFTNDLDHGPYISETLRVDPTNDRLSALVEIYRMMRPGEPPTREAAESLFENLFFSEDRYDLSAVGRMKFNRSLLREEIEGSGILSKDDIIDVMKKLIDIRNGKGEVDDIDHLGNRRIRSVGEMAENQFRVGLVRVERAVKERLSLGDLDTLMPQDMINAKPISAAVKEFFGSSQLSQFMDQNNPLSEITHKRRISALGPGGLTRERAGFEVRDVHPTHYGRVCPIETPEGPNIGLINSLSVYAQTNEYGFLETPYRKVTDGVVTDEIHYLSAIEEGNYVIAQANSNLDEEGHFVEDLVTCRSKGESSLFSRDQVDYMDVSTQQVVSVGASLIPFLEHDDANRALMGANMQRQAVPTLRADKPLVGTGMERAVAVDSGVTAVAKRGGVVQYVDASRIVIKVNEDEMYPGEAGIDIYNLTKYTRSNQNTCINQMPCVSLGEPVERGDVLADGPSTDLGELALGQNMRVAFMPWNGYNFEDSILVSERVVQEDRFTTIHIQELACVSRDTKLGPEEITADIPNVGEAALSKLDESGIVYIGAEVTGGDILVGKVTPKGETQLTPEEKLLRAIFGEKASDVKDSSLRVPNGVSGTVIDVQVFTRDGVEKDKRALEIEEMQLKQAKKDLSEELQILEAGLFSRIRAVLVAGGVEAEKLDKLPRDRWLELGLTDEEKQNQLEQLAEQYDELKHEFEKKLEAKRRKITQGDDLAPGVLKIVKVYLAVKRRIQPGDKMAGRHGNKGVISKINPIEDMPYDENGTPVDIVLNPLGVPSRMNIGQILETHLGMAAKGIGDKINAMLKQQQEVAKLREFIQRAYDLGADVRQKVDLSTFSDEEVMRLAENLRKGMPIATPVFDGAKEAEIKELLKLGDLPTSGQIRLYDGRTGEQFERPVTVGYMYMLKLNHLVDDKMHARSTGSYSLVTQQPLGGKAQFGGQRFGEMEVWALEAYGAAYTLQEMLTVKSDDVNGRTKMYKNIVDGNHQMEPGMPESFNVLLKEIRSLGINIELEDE
E. coli core RNAP enzyme, sequence (P0A8T7 whole entry, chain 3 of 4): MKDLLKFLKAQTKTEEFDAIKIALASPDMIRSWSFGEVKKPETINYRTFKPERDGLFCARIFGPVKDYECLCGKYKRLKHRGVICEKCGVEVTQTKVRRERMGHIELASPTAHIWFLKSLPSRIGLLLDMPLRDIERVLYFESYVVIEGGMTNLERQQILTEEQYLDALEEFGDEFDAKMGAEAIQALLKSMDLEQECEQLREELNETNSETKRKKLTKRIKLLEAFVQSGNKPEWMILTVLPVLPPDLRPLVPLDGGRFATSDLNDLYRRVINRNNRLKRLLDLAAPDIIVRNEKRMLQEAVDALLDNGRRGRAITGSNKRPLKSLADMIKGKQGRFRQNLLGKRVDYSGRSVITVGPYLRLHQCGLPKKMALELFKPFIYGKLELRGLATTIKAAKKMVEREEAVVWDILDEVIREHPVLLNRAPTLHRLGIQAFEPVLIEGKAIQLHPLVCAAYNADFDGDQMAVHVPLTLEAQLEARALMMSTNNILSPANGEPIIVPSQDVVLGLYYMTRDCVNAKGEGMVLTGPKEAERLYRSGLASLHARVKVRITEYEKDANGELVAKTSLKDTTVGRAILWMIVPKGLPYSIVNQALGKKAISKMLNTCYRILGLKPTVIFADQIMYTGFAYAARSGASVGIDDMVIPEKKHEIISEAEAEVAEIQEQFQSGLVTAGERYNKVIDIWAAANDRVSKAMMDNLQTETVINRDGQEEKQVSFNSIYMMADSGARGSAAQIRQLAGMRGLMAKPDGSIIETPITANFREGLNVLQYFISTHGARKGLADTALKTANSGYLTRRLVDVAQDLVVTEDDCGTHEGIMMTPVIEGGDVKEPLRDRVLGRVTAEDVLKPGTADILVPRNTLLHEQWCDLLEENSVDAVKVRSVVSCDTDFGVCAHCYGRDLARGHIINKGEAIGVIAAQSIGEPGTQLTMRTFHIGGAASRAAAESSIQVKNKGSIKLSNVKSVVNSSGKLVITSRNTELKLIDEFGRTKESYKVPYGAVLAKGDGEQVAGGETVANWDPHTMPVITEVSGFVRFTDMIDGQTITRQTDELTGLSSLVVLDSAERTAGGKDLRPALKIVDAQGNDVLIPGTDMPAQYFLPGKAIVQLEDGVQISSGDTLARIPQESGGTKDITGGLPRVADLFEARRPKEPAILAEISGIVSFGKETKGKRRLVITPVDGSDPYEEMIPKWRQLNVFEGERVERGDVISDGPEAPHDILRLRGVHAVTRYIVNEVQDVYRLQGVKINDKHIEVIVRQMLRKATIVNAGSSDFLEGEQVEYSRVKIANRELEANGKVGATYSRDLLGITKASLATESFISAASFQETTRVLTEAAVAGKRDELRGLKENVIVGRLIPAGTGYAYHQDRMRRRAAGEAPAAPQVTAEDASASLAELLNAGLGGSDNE
E. coli core RNAP enzyme, sequence (P0A800 whole entry, chain 4 of 4): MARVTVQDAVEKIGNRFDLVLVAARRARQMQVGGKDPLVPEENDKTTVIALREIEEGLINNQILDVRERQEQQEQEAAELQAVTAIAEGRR

B1: BODIPY FL-labelled DksA with a cysteine substitution at position 35 (A35C) (natural protein, E. coli)
chain: MQEGQNRKTSSLSILAIAGVEPYQEKPGEEYMNECQLAHFRRILEAWRNQLRDEVDRTVTHMQDEAANFPDPVDRAAQEEEFSLELRNRDRERKLIKKIEKTLKKVEDEDFGYCESCGVEIGIRRLEARPTADLCIDCKTLAEIREKQMAG
modifications: BODIPY FL (maleimide) conjugated to the cysteine at position 35
Kd: 112 nM
